Target: T1, human CD32a (FcgammaRIIa) on washed human platelets (human, UniProt P12318 34-317)
T1 sequence: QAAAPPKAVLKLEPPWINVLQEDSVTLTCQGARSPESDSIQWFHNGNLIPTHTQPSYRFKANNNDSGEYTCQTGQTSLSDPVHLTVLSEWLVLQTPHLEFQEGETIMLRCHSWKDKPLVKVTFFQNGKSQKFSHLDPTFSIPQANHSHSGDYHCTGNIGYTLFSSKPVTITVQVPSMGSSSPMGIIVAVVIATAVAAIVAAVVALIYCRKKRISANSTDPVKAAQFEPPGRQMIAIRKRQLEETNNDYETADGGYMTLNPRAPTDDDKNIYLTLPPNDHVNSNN
Assay: cell-based or functional assay

Binder | platelet aggregation by the combination of chimeric AT-10 hIgG1 E269R, chimeric IV.3 hIgG2 N297A and MDE-8 IgG1 E269R, 300 nM each [nM] | mAb concentration that inhibited 500 nM M90+CD40L IC-induced platelet aggregation [nM]
effector-deficient chimeric IV.3 human IgG2 N297A mAb (antibody) heavy: QIQLVQSGPELKKPGETVKISCKASGYTFTNYGMNWVKQAPGKGLKWMGWLNTYTGESIYPDDFKGRFAFSSETSASTAYLQINNLKNEDMATYFCARGDYGYDDPLDYWGQGTSVTVSSASTKGPSVFPLAPCSRSTSESTAALGCLVKDYFPEPVTVSWNSGALTSGVHTFPAVLQSSGLYSLSSVVTVPSSNFGTQTYTCNVDHKPSNTKVDKTVERKCCVECPPCPAPPVAGPSVFLFPPKPKDTLMISRTPEVTCVVVDVSHEDPEVQFNWYVDGVEVHNAKTKPREEQFASTFRVVSVLTVVHQDWLNGKEYKCKVSNKGLPAPIEKTISKTKGQPREPQVYTLPPSREEMTKNQVSLTCLVKGFYPSDIAVEWESNGQPENNYKTTPPMLDSDGSFFLYSKLTVDKSRWQQGNVFSCSVMHEALHNHYTQKSLSLSPGK light: DIVMTQAAPSVPVTPGESVSISCRSSKSLLHTNGNTYLHWFLQRPGQSPQLLIYRMSVLASGVPDRFSGSGSGTAFTLSISRVEAEDVGVFYCMQHLEYPLTFGAGTKLELKRTVAAPSVFIFPPSDEQLKSGTASVVCLLNNFYPREAKVQWKVDNALQSGNSQESVTEQDSKDSTYSLSSTLTLSKADYEKHKVYACEVTHQGLSSPVTKSFNRGEC | 300 | 
effector-deficient humanized AT-10 IgG1 E269R mAb (antibody) heavy: not shown light: EIVLTQSPATLSLSPGERATLSCRASESVDNFGISFLAWYQQKPGQAPRLLIYGASNRATGIPARFSGSGSGTDFTLTISSLEPEDFAVYYCQQSKEVPWTFGQGTKVEIKRTVAAPSVFIFPPSDEQLKSGTASVVCLLNNFYPREAKVQWKVDNALQSGNSQESVTEQDSKDSTYSLSSTLTLSKADYEKHKVYACEVTHQGLSSPVTKSFNRGEC |  | 15
effector-deficient humanized IV.3.2 IgG1 E269R mAb (antibody) heavy: not shown light: DIVMTQTPLSLPVTPGEPASISCRSSKSLLHTNGNTYLHWYLQKPGQSPQLLIYRMSVLASGVPDRFSGSGSGTDFTLKISRVEAEDVGVYYCMQHLEYPLTFGGGTKVEIKRTVAAPSVFIFPPSDEQLKSGTASVVCLLNNFYPREAKVQWKVDNALQSGNSQESVTEQDSKDSTYSLSSTLTLSKADYEKHKVYACEVTHQGLSSPVTKSFNRGEC |  | 3
